# Assay results: patent US20230280343A1 (NEW YORK UNIVERSITY, published 2023)
# Target: T1, SARS-CoV-2 spike receptor binding domain (RBD) (SARS-CoV-2, UniProt P0DTC2 319-541)
# T1 construct: domain: RBD
binder,measurement,value
"GDLAPQMLRELQETNAALQDVRELLRQQVKEITFLKNTVMECDACGKLN (other, also called parent protein C; ccCOMP) [coiled-coil domain of the cartilage oligomeric matrix protein (C)]",binding result,no binding
